B1: CPEB3 Ribozyme (parent)
chain: GGGGGCCACAGCAGAAGCGUUCACGUCGCGGCCCCUGUCAGAUUCUGGUGAAUCUGCGAAUUCUGCUGU

Variants of: B1
Experiment: self-cleavage, relative activity (ratio to wild type); higher = more cleavage; co-transcriptional

Variant | self-cleavage
U20C C24G | 0.146
U20C C24U | 0.18
U20C C24A | 0.191
U20A U69A | 0.181
U20A G48C | 0.117
U20A G48U | 0.104
U20G G50U | 0.239
G19C C57U | 0.146
U20A C63U | 0.16
U20A U62G | 0.0797
U20A U62C | 0.148
U20C G68U | 0.195
U20C G68C | 0.211
U20C U36C | 0.159
U20C U36G | 0.116
G19A C33G | 0.172
G19C C22U | 0.158
U20C C32U | 0.248
U20C C32G | 0.218
U20A G41A | 0.166
U20A G41U | 0.126
G19A U44C | 0.16
G19A U26C | 0.0939
G19A U26G | 0.19

Variant | self-cleavage
G19C G47A | 0.169
U20G C27G | 0.177
U20G C27A | 0.105
U20C U62G | 0.278
U20C U62A | 0.133
G19U G48C | 0.699
G19U G48A | 0.673
C18U G48A | 0.948
U20G C57G | 0.181
U20G C57A | 0.124
U20G G30C | 0.212
U20G G30U | 0.191
U20A C39G | 0.251
G19A U38G | 0.156
C18U U49A | 0.914
C18U U49C | 0.864
G19U U44C | 0.232
G19A C35U | 0.188
G19A C35A | 0.181
U20G C24A | 0.128
C18U G19A | 0.144
U20G A59C | 0.1
G19A U20A | 0.145
G19A U20C | 0.166

Variant | self-cleavage
G19U C35U | 0.262
G19U C35A | 0.119
U20G G31U | 0.128
U20C U53G | 0.167
U20C U53A | 0.135
U20A G50A | 0.147
G19U C66U | 0.382
U20C C57U | 0.194
U20C C57A | 0.232
G19A G50U | 0.133
G19A A60G | 0.161
G19U U20G | 0.139
U21A C24U | 0.69
G19U C32U | 0.55
G19C G56U | 0.123
U20A C54A | 0.125
G19U C45A | 0.459
G19A C45U | 0.167
G19A C45A | 0.121
G19C G41U | 0.129
U20A C35U | 0.124
U21A C32U | 0.993
U21A C32A | 0.808
U20C A51U | 0.172

Variant | self-cleavage
U20C A51C | 0.259
U20G G25C | 0.227
G19C A60G | 0.119
G19C A60U | 0.128
G19U U69G | 0.819
G19U G56U | 0.281
U20G U43G | 0.153
G19C A42U | 0.173
G19C A42G | 0.11
G19C A42C | 0.153
U20G U62C | 0.244
C18U U36G | 0.19
U20A U67A | 0.12
U20G U21C | 0.166
G19C A23G | 0.11
U20A U43A | 0.152
G19A U43C | 0.116
G19A U43A | 0.108
U20G C32G | 0.179
U20C U55C | 0.139
U20C U55G | 0.203
U21A A42U | 0.941
G19A A51G | 0.172
G19A A51C | 0.161

Variant | self-cleavage
C18U G58C | 0.852
U20C C22A | 0.201
G19C A51U | 0.157
G19C A51G | 0.182
G19U G28C | 0.125
C18U G37U | 0.198
U21A C22U | 0.325
G19A G48C | 0.188
U20G C63A | 0.157
U20C U69G | 0.394
G19A A40G | 0.17
G19C U62A | 0.107
G19C U62C | 0.123
U21A C27G | 0.222
G19C U44C | 0.164
G19U A60C | 0.18
C18U U20G | 0.28
U20C U61G | 0.226
U20A C45G | 0.149
U20A C45A | 0.142
U20G U46G | 0.189
G19A G31A | 0.17
U20A A40C | 0.188
U20A A40U | 0.0825

Variant | self-cleavage
C18U C32G | 0.213
G19C C24G | 0.135
G19C C24U | 0.204
G19C C24A | 0.183
G19C A59C | 0.0891
G19C A59U | 0.185
G19U C27U | 0.158
G19A U46A | 0.155
G19A C22A | 0.104
C18U U55G | 0.39
G19U G50U | 0.509
U20C A52G | 0.161
G19A C54G | 0.159
U20G G68U | 0.183
G19C U67C | 0.203
U20G U67A | 0.223
U20G U67C | 0.237
C18U U62G | 0.494
G19U C34A | 0.195
G19U C34G | 0.232
G19U C34U | 0.545
C18U U43A | 0.549
G19C U21G | 0.161
U20A G65A | 0.156

Variant | self-cleavage
G19C C39U | 0.158
G19C C39G | 0.162
U20C C27A | 0.17
C18U G50U | 0.906
C18U G50C | 0.803
G19U C24U | 0.169
G19U C24A | 0.153
G19C U46G | 0.122
U20C G56U | 0.127
U20C G56C | 0.203
U20A U49C | 0.275
U20A U49G | 0.199
U20A C33A | 0.166
U20A C33G | 0.192
U20A C33U | 0.2
U20C G37C | 0.0963
U20A G37U | 0.169
G19C C63G | 0.204
G19C C63A | 0.144
G19C C63U | 0.135
G19A A59U | 0.169
U20G U69A | 0.264
G19U U38C | 0.252
G19C G25U | 0.145

Variant | self-cleavage
G19C G25A | 0.101
U21A C34G | 0.606
U20G C33U | 0.145
G19A G56U | 0.155
G19C U61A | 0.216
G19C C33A | 0.196
C18U C45U | 0.877
C18U C45G | 0.778
U20A U26A | 0.0885
C18U U64C | 0.383
C18U U64A | 0.351
G19U U36A | 0.164
G19U U36C | 0.212
G19U U21G | 0.159
G19U U21A | 0.31
C18U C57U | 0.3
G19U C57A | 0.224
C18U C29G | 0.132
U20C A42U | 0.271
U20C A42C | 0.199
C18U C33A | 0.278
C18U C33G | 0.304
G19C C27A | 0.135
U20G G48C | 0.224

Variant | self-cleavage
U20C C29G | 0.165
G19A G68A | 0.18
G19A G68C | 0.209
G19C G58A | 0.162
U20C G28U | 0.208
G19U U53C | 0.242
G19U U53A | 0.273
G19U U53G | 0.252
U20G U44A | 0.271
U20G U44C | 0.199
U20G U64A | 0.152
U20G U64G | 0.117
U20G C66G | 0.15
U20G C66A | 0.23
U20A A60U | 0.117
U20C G30A | 0.17
G19C U64G | 0.139
G19C U64A | 0.176
G19C G50C | 0.148
C18U U67G | 0.922
U21A C29A | 0.686
C18U U69A | 0.944
U20C A40U | 0.227
U20C A40C | 0.215

Variant | self-cleavage
C18U C35U | 0.687
U20C C66G | 0.179
G19A G58A | 0.132
G19A U21C | 0.164
G19A U21G | 0.14
G19A U21A | 0.143
C18U C66G | 0.341
U20G G58C | 0.099
G19A U36C | 0.161
G19C A40C | 0.0886
C18U C22A | 0.0833
G19A A42G | 0.166
G19A A42C | 0.13
U20G G37U | 0.182
U20G A51U | 0.219
U20G A51C | 0.27
U20G U26A | 0.163
U20G U26G | 0.123
G19C U53C | 0.0977
G19C U49A | 0.178
G19C U43G | 0.122
G19C U43C | 0.134
U20A C27A | 0.151
G19U A23G | 0.262

Variant | self-cleavage
G19A U67A | 0.147
C18U U53A | 0.632
C18U U53G | 0.633
G19A C32U | 0.216
G19A C32G | 0.153
G19C G30U | 0.157
U20A A42U | 0.133
G19C U38A | 0.218
G19C U38C | 0.135
C18U C34G | 0.426
C18U C34U | 0.919
U20C U21G | 0.211
U20C U21C | 0.197
G19U A59C | 0.131
U20A C24G | 0.0902
G19A G37A | 0.142
G19A G37C | 0.128
U21A A59U | 0.891
G19A C34G | 0.181
G19U G47A | 0.655
G19U G47C | 0.677
G19U U55A | 0.209
G19U U55G | 0.127
G19A G47A | 0.122

Variant | self-cleavage
G19A G47U | 0.12
U20C A23G | 0.238
G19U U49A | 0.639
G19A U62C | 0.231
U20G C22U | 0.141
U20G U38G | 0.123
G19U A51C | 0.432
G19A U64A | 0.104
G19A U64G | 0.12
U20C G48C | 0.229
G19C C29U | 0.112
U20A U21G | 0.2
U20A U21A | 0.219
G19U C29U | 0.117
U20G G65C | 0.166
G19A U61G | 0.164
U20A G58C | 0.164
C18U G56C | 0.341
C18U G56U | 0.578
C18U G28U | 0.206
C18U G28C | 0.174
C18U C24U | 0.4
U20G C34A | 0.223
U20G C29U | 0.137

Variant | self-cleavage
U20C G65C | 0.126
U20C G65U | 0.18
G19A C39G | 0.149
G19A C29A | 0.159
U20A U38C | 0.107
U20A U38A | 0.188
C18U U26A | 0.669
U20G U36G | 0.16
U20G U61A | 0.207
U20A G47U | 0.179
U20A G47C | 0.261
U20C U67C | 0.131
G19C C32G | 0.207
C18U G41U | 0.44
C18U G41C | 0.211
C18U G41A | 0.331
U20C U44C | 0.123
U20C U44G | 0.149
G19U G30C | 0.186
C18U G65U | 0.245
G19C U69A | 0.147
G19A U69C | 0.333
G19A U69G | 0.249
C18U C39G | 0.491

Variant | self-cleavage
U20A U36A | 0.158
G19U G68A | 0.793
G19A U53G | 0.18
G19A U53C | 0.15
U20A A23U | 0.192
U20A A23G | 0.041
G19A C63U | 0.116
U20C U43G | 0.241
U20C U43A | 0.227
G19C G48C | 0.169
G19C G48U | 0.141
G19C G48A | 0.189
U20C G50C | 0.102
U20C G50A | 0.174
C18U G30A | 0.282
U20A A59U | 0.106
U20G G28U | 0.161
G19U G58C | 0.443
U20C C54A | 0.156
G19U C63G | 0.249
G19U C63U | 0.318
G19C C35U | 0.163

Reference: the RNAGym collection of RNA variant scans (doi:10.7554/elife.80360)
